In patent US12044680:
“And” between values parts separate entries of the source, which are not always exact repeats. Equal values may be shown once. Read-outs that look alike come from different tables or passages of the source.

How the values were obtained:
[1] = molecular target: HLA-A*02:01 tetramer (human)
[2] = molecular target: HLA-A*24:02 tetramer (human)
[3] = molecular target: HLA-A*02:01 tetramer (human); test: peptide exchange on HLA-A*02:01 tetramer, entering peptide 20 µM, 4 h; competitor: exiting peptide ILKEKK(DNP)VHGV; capture on anti HLA-ABC beads, anti-DNP FITC, flow cytometry
[4] = molecular target: HLA-A*24:02 tetramer (human); test: peptide exchange on HLA-A*24:02 tetramer, competing peptide 20 µM, 4 h; competitor: exiting peptide TFQRK(DNP)PAAF; capture on anti HLA-ABC beads, anti-DNP FITC, flow cytometry
[5] = molecular target: T1, H-2 Kb tetramer (murine), P01901
T1 chain: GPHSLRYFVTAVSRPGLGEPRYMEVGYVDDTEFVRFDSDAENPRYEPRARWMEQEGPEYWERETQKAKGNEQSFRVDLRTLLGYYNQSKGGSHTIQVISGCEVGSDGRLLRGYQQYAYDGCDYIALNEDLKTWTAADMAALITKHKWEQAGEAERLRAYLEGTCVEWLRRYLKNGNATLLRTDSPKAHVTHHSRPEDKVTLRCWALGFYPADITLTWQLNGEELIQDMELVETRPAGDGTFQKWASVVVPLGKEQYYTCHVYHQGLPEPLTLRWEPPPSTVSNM

[6] = molecular target: T1, H-2 Kb tetramer (murine), P01901; test: peptide exchange on H-2 Kb PE tetramer, reference peptide 2 µM, glycyl-methionine, 4 h; competitor: exiting peptide TFQRK(DNP)PAAF; bead sandwich immunoassay, flow cytometry
[7] = molecular target: T1, H-2 Kb tetramer (murine), P01901; test: peptide exchange on H-2 Kb BV421 tetramer, reference peptide 20 µM, glycyl-methionine, 4 h; competitor: exiting peptide TFQRK(DNP)PAAF; bead sandwich immunoassay, flow cytometry
[8] = molecular target: T1, H-2 Kb tetramer (murine), P01901; test: peptide exchange on H-2 Kb BV421 tetramer, reference peptide 2 µM, glycyl-methionine, 4 h; competitor: exiting peptide TFQRK(DNP)PAAF; bead sandwich immunoassay, flow cytometry
[9] = molecular target: T1, H-2 Kb tetramer (murine), P01901; test: peptide exchange on H-2 Kb APC tetramer, reference peptide 2 µM, glycyl-methionine, 4 h; competitor: exiting peptide TFQRK(DNP)PAAF; bead sandwich immunoassay, flow cytometry
[10] = molecular target: T1, H-2 Kb tetramer (murine), P01901; test: peptide exchange on H-2 Kb PE tetramer, reference peptide 20 µM, glycyl-methionine, 4 h; bead sandwich immunoassay, flow cytometry
[11] = molecular target: T1, H-2 Kb tetramer (murine), P01901; test: peptide exchange on H-2 Kb APC tetramer, reference peptide 20 µM, glycyl-methionine, 4 h; competitor: exiting peptide TFQRK(DNP)PAAF; bead sandwich immunoassay, flow cytometry
[12] = remark: other sources report otherwise

B1: … (SEQ ID NO: 23) (peptide)
peptide: GLADQLIHL
modifications: not checked
- % peptide exchange [1]: 91.4%

B2: … (SEQ ID NO: 25) (peptide)
peptide: GYSLKLSKL
modifications: not checked
- % peptide exchange [2]: 37.9%

B3: … (SEQ ID NO: 45) (peptide)
peptide: EYILSLEEL
modifications: not checked
- % peptide exchange [3]: 24.2%

B4: … (SEQ ID NO: 24) (peptide)
peptide: GLAVVTHGL
modifications: not checked
- % peptide exchange [3]: 91%

B5: … (SEQ ID NO: 35) (peptide)
peptide: WMHKVPASL
modifications: not checked
- % peptide exchange [3]: 87.9%

B6: … (SEQ ID NO: 21) (peptide)
peptide: FLSELTQQL
modifications: not checked
- % peptide exchange [4]: 23.6%

B7: … (SEQ ID NO: 49) (peptide)
peptide: IRLRPGGKK
modifications: not checked
- % peptide exchange [1]: 25%

B8: … (SEQ ID NO: 42) (peptide)
peptide: RIKDFLRNL
modifications: not checked
- % peptide exchange [3]: 34%

B9: … (SEQ ID NO: 37) (peptide)
peptide: WMHHNMDLI
modifications: not checked
- % peptide exchange [3]: 89.2%

B10: … (SEQ ID NO: 46) (peptide)
peptide: ALALEVGEL
modifications: not checked
- % peptide exchange [3]: 85.1%

B11: … (SEQ ID NO: 41) (peptide)
peptide: IMQIMPYGC
modifications: not checked
- % peptide exchange [3]: 59.9%

B12: TFQRK(DNP)PAAF (SEQ ID NO: 16) (peptide)
peptide: TFQRKPAAF
modifications: not checked
- % peptide exchange (loss of the exiting peptide without entering peptide) [5]: 16% and 13.3% and 30.4%

B13: … (SEQ ID NO: 18) (peptide)
peptide: AMAPRTLLL
modifications: not checked
- % peptide exchange [4]: 81.6%

B14: … (SEQ ID NO: 28) (peptide)
peptide: LNMADKKET
modifications: not checked
- % peptide exchange [2]: 10.3%

B15: … (SEQ ID NO: 30) (peptide)
peptide: RVRAYTYSK
modifications: not checked
- % peptide exchange [2]: 10.3%

B16: … (SEQ ID NO: 43) (peptide)
peptide: ALLAVGATK
modifications: not checked
- % peptide exchange [3]: 25.7%

B17: … (SEQ ID NO: 27) (peptide)
peptide: IYSTVASSL
modifications: not checked
- % peptide exchange [2]: 101%

B18: … (SEQ ID NO: 31) (peptide)
peptide: RYMRWTYRF
modifications: not checked
- % peptide exchange [2]: 101%

B19: … (SEQ ID NO: 36) (peptide)
peptide: CINGVCWTV
modifications: not checked
- % peptide exchange [1]: 85.3%

B20: reference entering peptide (SIYRYYGL (SEQ ID NO: 59)) (peptide)
peptide: SIYRYYGL
modifications: not checked
- % peptide exchange [6]: 92.7%
- % peptide exchange [7]: 97.3%
- % peptide exchange [8]: 90.6%
- % peptide exchange [9]: 97.1%
- % peptide exchange [10]: 100%
- % peptide exchange [11]: 99.1%

B21: … (SEQ ID NO: 40) (peptide)
peptide: IMQLMPFGC
modifications: not checked
- % peptide exchange [3, 12]: 40.9%

B22: … (SEQ ID NO: 39) (peptide)
peptide: LTLGEFLKL
modifications: not checked
- % peptide exchange [3]: 43.6%

B23: … (SEQ ID NO: 33) (peptide)
peptide: FLYDDNQRV
modifications: not checked
- % peptide exchange [3]: 91.2%

B24: … (SEQ ID NO: 48) (peptide)
peptide: ATVQGQNLK
modifications: not checked
- % peptide exchange [3]: 27.9%

B25: HLA-A*02:01 Reference peptide, … (SEQ ID NO: 5) (peptide)
peptide: YLLEFTPPV
modifications: not checked
- % peptide exchange [3]: 91.9%

B26: … (SEQ ID NO: 44) (peptide)
peptide: CSLWNGPHL
modifications: not checked
- % peptide exchange [3]: 55.2%

B27: … (SEQ ID NO: 38) (peptide)
peptide: SLPPPGTRV
modifications: not checked
- % peptide exchange [3, 12]: 86.6%

B28: … (SEQ ID NO: 34) (peptide)
peptide: AVLDGLLSL
modifications: not checked
- % peptide exchange [3]: 90.7%

B29: … (SEQ ID NO: 47) (peptide)
peptide: SYVPSAEQI
modifications: not checked
- % peptide exchange [3]: 25%
